Laboratory results as given in the Immune Epitope Database (IEDB).
pKd: −log10 of the molar value.

How the values were obtained:
[1] = target: HLA-B*58:01; test: IEDB peptide-MHC binding, purified MHC/competitive/radioactivity; filed as Kd, often an IC50 or EC50 that approximates it; ≥ and ≤ were set here for values at or beyond the usual limits of such assays
[2] = target: HLA-B*57:01; test: as above
[3] = target: HLA-B*27:03; test: IEDB peptide-MHC binding, purified MHC/competitive/fluorescence; filed as Kd, often an IC50 or EC50 that approximates it; ≥ and ≤ were set here for values at or beyond the usual limits of such assays
[4] = target: HLA-A*26:01; test: as above
[5] = target: HLA-B*51:01; test: as above
[6] = target: HLA-B*40:01; test: IEDB peptide-MHC binding, purified MHC/direct/fluorescence; filed as Kd, often an IC50 or EC50 that approximates it; ≥ and ≤ were set here for values at or beyond the usual limits of such assays; details: source organism: Reston ebolavirus - Reston
[7] = target: HLA-B*18:01; test: as above; details: source organism: Reston ebolavirus - Reston
[8] = target: HLA-B*27:05; test: as above; details: source organism: Reston ebolavirus - Reston
[9] = target: HLA-A*02:12; test: as above; details: source organism: Reston ebolavirus
[10] = target: HLA-A*29:02; test: as above; details: source organism: Reston ebolavirus - Reston
[11] = target: HLA-B*15:01; test: as above; details: source organism: Reston ebolavirus - Reston
[12] = target: HLA-A*23:01; test: as above; details: source organism: Reston ebolavirus
[13] = target: HLA-B*07:02; test: as above; details: source organism: Reston ebolavirus - Reston
[14] = target: HLA-A*03:01; test: as above; details: source organism: Reston ebolavirus - Reston
[15] = target: HLA-B*48:01; test: as above; details: source organism: Reston ebolavirus - Reston
[16] = target: HLA-A*02:11; test: as above; details: source organism: Reston ebolavirus
[17] = target: HLA-B*46:01; test: as above; details: source organism: Reston ebolavirus - Reston
[18] = target: HLA-A*31:01; test: as above; details: source organism: Reston ebolavirus - Reston
[19] = target: HLA-A*24:03; test: as above; details: source organism: Reston ebolavirus
[20] = target: HLA-A*69:01; test: as above; details: source organism: Reston ebolavirus - Reston
[21] = target: HLA-B*39:01; test: as above; details: source organism: Reston ebolavirus - Reston
[22] = target: HLA-B*58:01; test: as above; details: source organism: Reston ebolavirus - Reston
[23] = target: HLA-A*68:02; test: as above; details: source organism: Reston ebolavirus
[24] = target: HLA-A*01:01; test: as above; details: source organism: Reston ebolavirus - Reston
[25] = target: HLA-A*02:01; test: as above; details: source organism: Reston ebolavirus - Reston
[26] = target: HLA-B*44:02; test: as above; details: source organism: Reston ebolavirus - Reston
[27] = target: HLA-B*57:01; test: as above; details: source organism: Reston ebolavirus - Reston
[28] = target: HLA-A*32:01; test: IEDB peptide-MHC binding, purified MHC/competitive/radioactivity; filed as Kd, often an IC50 or EC50 that approximates it; ≥ and ≤ were set here for values at or beyond the usual limits of such assays; details: source organism: Dengue virus 4 Philippines/H241/1956
[29] = target: HLA-B*18:01; test: IEDB peptide-MHC binding, purified MHC/competitive/fluorescence; filed as Kd, often an IC50 or EC50 that approximates it; ≥ and ≤ were set here for values at or beyond the usual limits of such assays
[30] = target: HLA-A*02:12; test: as above
[31] = target: HLA-B*15:01; test: as above; details: source organism: Vibrio vulnificus CMCP6
[32] = target: HLA-A*02:19; test: as above
[33] = target: HLA-A*03:01; test: as above
[34] = target: HLA-A*24:03; test: as above
[35] = target: HLA-B*39:01; test: as above
[36] = target: HLA-A*02:01; test: as above
[37] = target: HLA-B*57:01; test: as above
[38] = target: HLA-B*46:01; test: as above; details: source organism: Escherichia coli str. K-12 substr. W3110
[39] = target: HLA-B*15:17; test: as above; details: source organism: Escherichia coli str. K-12 substr. W3110
[40] = target: HLA-A*69:01; test: as above; details: source organism: Escherichia coli str. K-12 substr. W3110
[41] = target: HLA-A*68:02; test: as above; details: source organism: Escherichia coli str. K-12 substr. W3110
[42] = target: HLA-A*02:03; test: as above; details: source organism: Bacillus cereus G9241
[43] = target: HLA-C*15:02; test: IEDB peptide-MHC binding, purified MHC/direct/fluorescence; filed as Kd, often an IC50 or EC50 that approximates it; ≥ and ≤ were set here for values at or beyond the usual limits of such assays; details: source organism: Bacillus cereus G9241
[44] = target: HLA-B*83:01; test: IEDB peptide-MHC binding, purified MHC/competitive/fluorescence; filed as Kd, often an IC50 or EC50 that approximates it; ≥ and ≤ were set here for values at or beyond the usual limits of such assays; details: source organism: Mycobacterium tuberculosis H37Rv
[45] = target: HLA-B*15:42; test: as above; details: source organism: Mycobacterium tuberculosis H37Rv
[46] = target: HLA-B*45:06; test: as above; details: source organism: Mycobacterium tuberculosis H37Rv
[47] = source organism: Dengue virus 1 Brazil/97-11/1997
[48] = source organism: Reston ebolavirus
[49] = source organism: Dengue virus 4 Philippines/H241/1956
[50] = source organism: Dengue virus 2 Jamaica/1409/1983
[51] = source organism: Vibrio vulnificus CMCP6
[52] = source organism: Escherichia coli str. K-12 substr. W3110
[53] = source organism: Bacillus cereus G9241

Question: With KSYAQMWQL as the sequence, how does the pKd [1, 47] read?
Answer: 8.11

Question: And the pKd [2, 47]?
Answer: 8.70

Question: KHDFIDNPL was tested. Which pKd [3, 48] did it give?
Answer: ≤ 4.70

Question: What about the pKd [4, 48] of the same sequence?
Answer: ≤ 4.70

Question: What about the pKd [5, 48] of the same sequence?
Answer: ≤ 4.70

Question: What about the pKd [6] of the same sequence?
Answer: ≤ 4.70

Question: And the pKd [7]?
Answer: ≤ 4.70

Question: And the pKd [8]?
Answer: ≤ 4.70

Question: And the pKd [9]?
Answer: ≤ 4.70

Question: And the pKd [10]?
Answer: ≤ 4.70

Question: And the pKd [11]?
Answer: ≤ 4.70

Question: And the pKd [12]?
Answer: ≤ 4.70

Question: And the pKd [13]?
Answer: ≤ 4.70

Question: And the pKd [14]?
Answer: ≤ 4.70

Question: And the pKd [15]?
Answer: ≤ 4.70

Question: And the pKd [16]?
Answer: ≤ 4.70

Question: What about the pKd [17] of the same sequence?
Answer: ≤ 4.70

Question: And the pKd [18]?
Answer: ≤ 4.70

Question: And the pKd [19]?
Answer: ≤ 4.70

Question: And the pKd [20]?
Answer: ≤ 4.70

Question: What about the pKd [21] of the same sequence?
Answer: 5.31

Question: And the pKd [22]?
Answer: ≤ 4.70

Question: What about the pKd [23] of the same sequence?
Answer: ≤ 4.70

Question: And the pKd [24]?
Answer: ≤ 4.70

Question: And the pKd [25]?
Answer: ≤ 4.70

Question: And the pKd [26]?
Answer: ≤ 4.70

Question: What about the pKd [27] of the same sequence?
Answer: ≤ 4.70

Question: What does the source list for VASGLLWVAE?
Answer: pKd [1, 49]: 7.12; pKd [2, 49]: ≤ 4.15

Question: With ASSALLWMAS as the sequence, how does the pKd [1, 47] read?
Answer: 4.77

Question: And the pKd [2, 47]?
Answer: 4.77

Question: ASSLLKNDIP was tested. Which pKd [1, 50] did it give?
Answer: 5.68

Question: What about the pKd [2, 50] of the same sequence?
Answer: 5.07

Question: How did the pKd [28] turn out when RSWNTGFDW was run?
Answer: 7.35

Question: And the pKd [1, 49]?
Answer: 7.75

Question: What about the pKd [2, 49] of the same sequence?
Answer: 7.86

Question: How did the pKd [29, 51] turn out when LMLHQQYNQ was run?
Answer: ≤ 4.70

Question: What about the pKd [30, 51] of the same sequence?
Answer: 6.73

Question: What about the pKd [31] of the same sequence?
Answer: ≤ 4.70

Question: And the pKd [3, 51]?
Answer: ≤ 4.70

Question: And the pKd [32, 51]?
Answer: ≤ 4.70

Question: And the pKd [33, 51]?
Answer: ≤ 4.70

Question: What about the pKd [34, 51] of the same sequence?
Answer: ≤ 4.70

Question: What about the pKd [35, 51] of the same sequence?
Answer: ≤ 4.70

Question: What about the pKd [36, 51] of the same sequence?
Answer: 6.72

Question: And the pKd [4, 51]?
Answer: ≤ 4.70

Question: And the pKd [5, 51]?
Answer: ≤ 4.70

Question: What about the pKd [37, 51] of the same sequence?
Answer: ≤ 4.70

Question: With KAINVLRGF as the sequence, how does the pKd [1, 50] read?
Answer: 7.37

Question: And the pKd [2, 50]?
Answer: 8.46

Question: IQFDWYPTS was tested. Which pKd [29, 52] did it give?
Answer: ≤ 4.70

Question: What about the pKd [30, 52] of the same sequence?
Answer: 6.20

Question: What about the pKd [3, 52] of the same sequence?
Answer: ≤ 4.70

Question: What about the pKd [32, 52] of the same sequence?
Answer: ≤ 4.70

Question: What about the pKd [33, 52] of the same sequence?
Answer: ≤ 4.70

Question: And the pKd [38]?
Answer: ≤ 4.70

Question: What about the pKd [39] of the same sequence?
Answer: ≤ 4.70

Question: And the pKd [34, 52]?
Answer: ≤ 4.70

Question: What about the pKd [40] of the same sequence?
Answer: ≤ 4.70

Question: And the pKd [35, 52]?
Answer: ≤ 4.70

Question: And the pKd [41]?
Answer: ≤ 4.70

Question: And the pKd [36, 52]?
Answer: ≤ 4.70

Question: What about the pKd [4, 52] of the same sequence?
Answer: ≤ 4.70

Question: What about the pKd [5, 52] of the same sequence?
Answer: ≤ 4.70

Question: What about the pKd [37, 52] of the same sequence?
Answer: ≤ 4.70

Question: What does the source list for ITNPFFYQM?
Answer: pKd [29, 53]: ≤ 4.70; pKd [3, 53]: ≤ 4.70; pKd [33, 53]: ≤ 4.70; pKd [42]: ≤ 4.70; pKd [35, 53]: ≤ 4.70; pKd [4, 53]: ≤ 4.70; pKd [37, 53]: 6.57; pKd [43]: 7.25

Question: TAAVLMLVAH was tested. Which pKd [1, 47] did it give?
Answer: 5.26

Question: How did the pKd [44] turn out when FPRIGTAVF was run?
Answer: 5.08

Question: And the pKd [45]?
Answer: ≤ 5.30

Question: And the pKd [46]?
Answer: ≤ 5.30
